Experimental data: PMC3672946 (Nature, 2013)

T1: Nqo12 (Thermus thermophilus, UniProt Q56227 1-606)
T1 sequence (looked up): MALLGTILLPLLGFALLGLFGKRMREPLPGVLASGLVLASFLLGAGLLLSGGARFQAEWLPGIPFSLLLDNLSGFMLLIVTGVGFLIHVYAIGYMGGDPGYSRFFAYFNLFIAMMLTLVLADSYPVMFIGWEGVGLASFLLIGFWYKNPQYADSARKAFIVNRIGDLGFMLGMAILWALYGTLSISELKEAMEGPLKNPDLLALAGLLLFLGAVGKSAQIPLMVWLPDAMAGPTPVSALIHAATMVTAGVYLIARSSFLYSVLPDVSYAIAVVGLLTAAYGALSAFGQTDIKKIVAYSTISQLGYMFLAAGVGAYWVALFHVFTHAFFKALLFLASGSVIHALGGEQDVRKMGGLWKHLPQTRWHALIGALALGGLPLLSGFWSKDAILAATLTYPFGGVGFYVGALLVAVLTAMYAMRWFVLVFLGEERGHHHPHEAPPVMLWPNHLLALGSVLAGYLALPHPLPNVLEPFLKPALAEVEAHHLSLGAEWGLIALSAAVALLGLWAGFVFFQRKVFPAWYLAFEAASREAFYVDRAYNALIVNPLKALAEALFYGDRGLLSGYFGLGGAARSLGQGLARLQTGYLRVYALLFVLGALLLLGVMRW

T2: Nqo8 (Thermus thermophilus, UniProt Q60019 1-365)
T2 sequence (looked up): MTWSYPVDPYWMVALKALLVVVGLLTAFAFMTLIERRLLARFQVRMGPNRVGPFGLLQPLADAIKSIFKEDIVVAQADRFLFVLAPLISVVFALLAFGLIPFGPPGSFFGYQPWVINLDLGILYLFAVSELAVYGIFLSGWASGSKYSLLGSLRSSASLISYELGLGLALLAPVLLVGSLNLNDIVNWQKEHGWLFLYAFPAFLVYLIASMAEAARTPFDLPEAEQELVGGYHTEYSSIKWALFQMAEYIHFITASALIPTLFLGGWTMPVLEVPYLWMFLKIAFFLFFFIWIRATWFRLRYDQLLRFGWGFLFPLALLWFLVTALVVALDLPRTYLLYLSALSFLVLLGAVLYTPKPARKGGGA

T3: Nqo10 (Thermus thermophilus, UniProt Q56225 1-176)
T3 sequence (looked up): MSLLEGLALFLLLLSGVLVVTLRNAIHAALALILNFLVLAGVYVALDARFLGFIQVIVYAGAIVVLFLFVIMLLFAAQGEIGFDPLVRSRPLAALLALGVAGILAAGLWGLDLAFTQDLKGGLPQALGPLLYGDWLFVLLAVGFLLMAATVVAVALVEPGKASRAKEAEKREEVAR

B1: Nqo13 (natural protein, Thermus thermophilus, UniProt Q56228 1-469, looked up)
chain: MVVLAVLLPVVFGALLLLGLPRALGVLGAGLSFLLNLYLFLTHPGGVAHAFQAPLLPGAGVYWAFGLDGLSALFFLTIALTVFLGALVARVEGRFLGLALLMEGLLLGLFAARDLLVFYVFFEAALIPALLMLYLYGGEGRTRALYTFVLFTLVGSLPMLAAVLGARLLSGSPTFLLEDLLAHPLQEEAAFWVFLGFALAFAIKTPLFPLHAWLPPFHQENHPSGLADALGTLYKVGVFAFFRFAIPLAPEGFAQAQGLLLFLAALSALYGAWVAFAAKDFKTLLAYAGLSHMGVAALGVFSGTPEGAMGGLYLLAASGVYTGGLFLLAGRLYERTGTLEIGRYRGLAQSAPGLAALALILFLAMVGLPGLSGFPGEFLTLLGAYKASPWLAALAFLSVIASAAYALTAFQKTFWEEGGSGVKDLAGAEWGFALLSVLALLLMGVFPGYFARGLHPLAEAFAKLLGGGA
B2: Nqo7 (natural protein, Thermus thermophilus, UniProt Q56217 1-119, looked up)
chain: MAPIQEYVGTLIYVGVALFIGVAALLVGALLGPKKPGRAKLMPYESGNDPAGEVKRFPVHFYVVAMLFILFDVEVAFLWPYAVSAGGLGLYGFLGVLAFTLLLFVGFLYEWWKGVMRWH
B3: Nqo11 (natural protein, Thermus thermophilus, UniProt Q56226 1-95, looked up)
chain: MSYLLTSALLFALGVYGVLTRRTAILVFLSIELMLNAANLSLVGFARAYGLDGQVAALMVIAVAAAEVAVGLGLIVAIFRHRESTAVDDLSELRG
B4: Nqo14 (natural protein, Thermus thermophilus, UniProt Q56229 1-427, looked up)
chain: MTLAILAVFSVALTLLGFVLPPQGVKRATLLGLALALASLLLTWGKPFAFGPYAVDGVSQVFTLLALLGALWTVGLVRSGRFEFYLLVLYAALGMHLLASTRHLLLMLVALEALSLPLYALATWRRGQGLEAALKYFLLGALAAAFFLYGAALFYGATGSLVLGAPGEGPLYALALGLLLVGLGFKAALAPFHFWTPDVYQGSPTPVVLFMATSVKAAAFAALLRVAAPPEALALLVALSVVVGNLAALAQKEAKRLLAYSSIAHAGYMALALYTGNAQALGFYLLTYVLATGLAFAVLSQISPDRVPLEALRGLYRKDPLLGLAFLVAMLSLLGLPPLAGFWGKYLAFAEAARAGAWGVLVLALVTSAVSAYYYLGLGLAVFARPEETPFRPGPPWARAAVVAAGVLLLALGLLPGLVLPALAAGG

Tests used:
Assay in all cases: crystal structure
Nqo12 = target: T1, Nqo12
Nqo8 = target: T2, Nqo8
Nqo14 = target: B4
Nqo10 = target: T3, Nqo10

Binder: B1
binding result (Nqo12): binds

Binder: B2
binding result (Nqo8): binds

Binder: B3
binding result (Nqo14): binds | binding result (Nqo10): binds

Binder: B4
binding result (Nqo12): binds
